These results are taken from patent US20080213176A1, “Compositions for Targeting Amine Oxidases in Vivo” (priority 2005, published 2008).

Entries after “also recorded” stand apart in the source; their conditions may differ.

Assay [1] addresses T1, VAP-1 (Homo sapiens, UniProt Q16853).
T1 sequence (Q16853 1-763): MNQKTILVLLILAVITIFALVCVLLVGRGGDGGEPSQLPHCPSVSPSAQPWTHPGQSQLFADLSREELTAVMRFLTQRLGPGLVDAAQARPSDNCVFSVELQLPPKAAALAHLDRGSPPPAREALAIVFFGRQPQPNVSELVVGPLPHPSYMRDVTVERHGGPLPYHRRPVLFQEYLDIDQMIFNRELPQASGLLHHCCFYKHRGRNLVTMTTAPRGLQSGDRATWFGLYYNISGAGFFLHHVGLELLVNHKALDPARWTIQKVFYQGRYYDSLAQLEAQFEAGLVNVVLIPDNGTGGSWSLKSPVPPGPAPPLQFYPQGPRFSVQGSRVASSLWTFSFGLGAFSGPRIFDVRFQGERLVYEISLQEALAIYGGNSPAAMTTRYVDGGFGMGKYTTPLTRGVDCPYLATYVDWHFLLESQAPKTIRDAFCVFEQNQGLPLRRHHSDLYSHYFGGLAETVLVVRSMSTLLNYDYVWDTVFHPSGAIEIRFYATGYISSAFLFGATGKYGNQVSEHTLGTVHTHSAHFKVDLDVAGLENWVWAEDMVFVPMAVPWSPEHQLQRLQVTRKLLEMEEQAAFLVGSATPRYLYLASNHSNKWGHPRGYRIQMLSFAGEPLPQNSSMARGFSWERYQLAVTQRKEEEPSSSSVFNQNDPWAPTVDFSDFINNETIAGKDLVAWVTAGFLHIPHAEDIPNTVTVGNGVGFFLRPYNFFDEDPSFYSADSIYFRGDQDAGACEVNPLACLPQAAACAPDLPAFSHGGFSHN
Particulars: computer docking simulations, literature; cited from earlier work.

For assay [2], the target named is T1, VAP-1. Put plainly: Fluorometric detection of SSAO-mediated H2O2 formation (Amplex Red) with VAP-1 transfected CHO cells. Type of assay: biochemical. Also noted: The CHO cells stably transfected with the cDNA encoding VAP-1 was used; expressed in transfected cells; host or cells: CHO cells, stably transfected. The note with it: for inhibition of the activity (VAP-1 SSAO): methylamine substrate. On the procedure: Cells. The CHO cells stably transfected with the cDNA encoding VAP-1 was used. The VAP-1 expression level of these cells was confirmed by staining with anti-VAP-1 monoclonal antibodies and subsequent flow cytometric analyses. The VAP-1 transfectants were grown into the confluence, detached, counted and equal numbers were divided to 96 well plates for enzymatic assays.
Fluorometric detection of SSAO-mediated H2O2 formation. Amine oxidase activities were measured using a highly sensitive and stable probe for H2O2 Amplex Red reagent (Molecular Probes Europe BV) as described previously (Salmi et al., 2001). The enzymes were incubated in white microplates in the final volume of 200 μl KRPG containing various concentrations of the tested peptides, 0.8 U/ml horseradish peroxidase, 60 μM Amplex Red reagent, and methylamine as preferred amine substrate for SSAO. Fluorescence intensity of the samples was measured using Tecan ULTRA fluoropolarometer (excitation/emission wavelengths 545/595 nm). To evaluate the amount of H2O2 formed via SSAO-mediated reaction, specific enzyme inhibitor semicarbazide (200 μM) was included in the control well, and these values were subtracted from the total amount of H2O2 formed. To test whether the peptides could interfere with fluorometric H2O2 detection, H2O2 concentrations were calculated from calibration curves generated by serial dilutions of standard H2O2 in the presence of various concentrations of peptides. All calibration curves show linear dependence of the measured fluorescence intensity vs. H2O2 concentration in the presence of peptides in concentrations less than 250 micrograms/ml.

Setting [3] is: peptide concentration 10 micrograms/ml.
Where [4] appears, read: peptide concentration 100 micrograms/ml.

Take GGGGKGGGG (VAP-1 targeting peptide): in the assay with VAP-1 [1], the “binding to the active site of VAP-1 in docking” value (shortened to “binding to the active site”) is “bind optimally”. Also, the results for the “inhibition of the activity (VAP-1 SSAO)” value with VAP-1 [2] (setting [3]) and in the assay with VAP-1 [2] (setting [4]) were 17.4% and 20.3%, respectively. Take GGGGKYGGG (VAP-1 targeting peptide): in the assay with VAP-1 [2] (comparison in words), the “VAP-1 inhibiting activity compared with earlier lysine containing peptides” value is “stronger than that of the previously disclosed lysine containing peptides; also recorded: more potent inhibitor of VAP-1 than GGGGKGGGG”. Further, the “inhibition of the activity (VAP-1 SSAO)” value in the assay with VAP-1 [2] (setting [3]) was determined as 33.5%; with VAP-1 [2] (setting [4]) it was 42.8%. Turning to “GGGKEGG (VAP-1 targeting peptide) [previously disclosed lysine containing peptide]”, in the assay with VAP-1 [1], the “binding to the active site” value was “bind optimally”.

Take “GGGKGGG (VAP-1 targeting peptide) [previously disclosed lysine containing peptide]”: in the assay with VAP-1 [1], the “binding to the active site” value is reported as “bind optimally”. Regarding “GGGKKGG (VAP-1 targeting peptide) [previously disclosed lysine containing peptide]”, the “binding to the active site” value with VAP-1 [1] is given as “bind optimally”.
